Assay results reported in the RNAGym collection of RNA variant scans (doi:10.7554/elife.80360).

B1: HDV Ribozyme (parent)
chain: GGCCGGCAUGGUCCCAGCCUCCUCGCUGGCGCCGGCUGGGCAACAUUCCGAGGGGACCGUCCCCUCGGUAAUGGCGAAUGGGACCCA

Variants of: B1
Test: self-cleavage, relative activity (ratio to wild type); higher = more cleavage; co-transcriptional

Variant	self-cleavage
G10A C13G	0.104
G10C C41G	0.437
G10C C41U	0.692
G10C C41A	0.767
G10C A78G	0.399
G10A C22U	0.157
G10A C22G	0.0171
G10A C22A	0.0528
U9G C84G	0.222
G10C C26G	1.14
G10C C26A	1.12
U9G G82U	0.767
U9G G81C	0.443
G10A G81U	0.0468
G10A G81A	0.187
G10A G81C	0.22
G10C C75G	0.115
U9G G34C	0.175
G10A G55U	0.698
G10A G55A	0.831
G10A A87U	0.779
G10C U72C	0.289
G10C G55C	0.759
G10C G55U	0.831

Variant	self-cleavage
G10A C33U	0.554
G10A C33G	0.0767
G10A C33A	0.111
G10C C30A	0.107
G10C C30G	0.212
G10C U65G	0.997
G10C U65A	0.665
G10C G29A	0.032
G10C G40C	0.264
G10A U23G	0.181
G10A U23A	0.596
G10A U23C	0.554
G10C A45G	0.791
G10C A71G	0.906
G10C A71C	0.802
G10C A71U	0.767
U9G C49A	1.11
U9G C49U	0.776
G10C G80A	0.166
U9G G28C	0.222
U9G G28A	0.0573
G10A G39U	0.293
G10C C44G	0.415
G10C C44A	0.615

Variant	self-cleavage
G10A C84U	0.54
U9G C26G	0.88
G10C U46C	0.475
G10C U46G	0.346
G10C U46A	0.525
G10C C15G	0.0723
G10A C85G	0.892
U9G C75U	0.222
U9G G73U	0.0831
G10A A51C	0.623
G10A A51G	0.546
G10A A78C	0.113
G10A A78U	0.0382
G10A U79A	0.302
G10A U79C	0.0882
U9G C32A	0.277
U9G C32U	0.623
G10A G31U	0.226
G10A G31C	0.198
G10C C66A	0.848
G10C C66G	0.646
G10C C66U	0.862
G10A G38C	0.0692
G10A G38A	0.0607

Variant	self-cleavage
G10C A70U	0.65
G10C C86U	1.03
G10C C86G	0.538
G10C C13A	0
G10C C13G	0.0723
G10A U20A	0.0831
U9G C64G	0.831
U9G C44U	0.443
G10C C85G	0.76
U9G G10C	0.489
U9G G10U	0.987
U9G G11U	0.532
U9G G11C	0.594
G10A U37G	0.198
G10A U37A	0.0944
G10A U37C	0.695
G10C C48A	0.853
G10C C48U	0.911
G10C C48G	1.17
G10C G31U	0.219
U9G U37A	0
U9G G39U	0.807
U9G G39C	0.196
U9G U46G	0.646

Variant	self-cleavage
U9G U46A	0.312
G10A G68C	0.453
G10A G68U	0.562
G10A G68A	0.604
G10A G25U	0.0678
G10A C15G	0.166
U9G U60C	0.748
U9G U60A	0.831
G10C U12G	0
U9G C13U	1.07
U9G U79C	0.748
U9G U79G	0.923
G10C A83U	0.465
G10C A83C	0.0615
G10C A42C	0.142
G10A C62U	0.898
G10A C62A	0.673
U9G G67U	1.25
U9G U65C	1.17
U9G U65A	1.27
G10C C14A	0.237
G10A U69G	0.554
G10A U69A	0.677
G10A C58G	0.939

Variant	self-cleavage
G10A A16G	0.584
G10A A16U	0.929
G10A A16C	0.867
G10A C61G	0.844
G10A C61A	0.674
G10U A16U	0.846
G10A G74U	0.257
G10A G74A	0.101
U9G G38U	0
U9G G38C	0.302
G10C G28A	0.0723
G10A U65C	0.769
G10C A16C	0.88
G10A C48G	0.671
G10A C48A	0.739
G10A C63G	0.566
G10A A77G	0.53
G10C C33G	0.145
G10C C33U	0.696
U9G C18G	0
U9G C18A	0.0923
U9G C18U	0.504
U9G C58G	1.02
U9G C63U	1.07

Variant	self-cleavage
U9G C21G	0
G10A U46C	0.397
G10A U46A	0.506
G10A C19G	0.111
G10A C19A	0.0489
G10A G82A	0.176
G10A G82U	0.36
U9G G35U	0.653
U9G G35A	0.782
U9G C86A	0.959
U9G G54U	0.831
U9G G76U	1.13
U9G G76C	1.14
U9G G76A	1.23
G10C C84U	0.604
U9G C57G	1.19
U9G C57A	0.831
U9G G53C	0.939
G10A C66U	0.853
G10A C66A	0.82
G10C C24G	0
G10A G11U	0.095
G10A G11C	0.256
